Reference: patent publication US7034007

Columns and labels:
[1] = biological target: B2 bradykinin receptor (rabbit airway smooth muscle membranes) (rabbit) (UniProt Q28642); test: radioligand binding, airway smooth muscle membranes of allergic rabbits treated with B2A bradykinin receptor antisense oligo, 0.2 mg total
[2] = biological target: B2 bradykinin receptor (rabbit airway smooth muscle membranes) (rabbit) (UniProt Q28642); test: radioligand binding, airway smooth muscle membranes of allergic rabbits treated with B2A bradykinin receptor antisense oligo, 2 mg total
[3] = biological target: B2 bradykinin receptor (rabbit airway smooth muscle membranes) (rabbit) (UniProt Q28642); test: radioligand binding, airway smooth muscle membranes of allergic rabbits treated with B2MM mismatch oligo, 20 mg total
[4] = biological target: B2 bradykinin receptor (rabbit airway smooth muscle membranes) (rabbit) (UniProt Q28642); test: radioligand binding, airway smooth muscle membranes of allergic rabbits treated with B2MM mismatch oligo, 2 mg total
[5] = biological target: B2 bradykinin receptor (rabbit airway smooth muscle membranes) (rabbit) (UniProt Q28642); test: radioligand binding, airway smooth muscle membranes of allergic rabbits treated with adenosine A1 receptor antisense oligo, 2 mg total
[6] = biological target: B2 bradykinin receptor (rabbit airway smooth muscle membranes) (rabbit) (UniProt Q28642); test: radioligand binding, airway smooth muscle membranes of allergic rabbits treated with A1MM1 mismatch control oligo, 2 mg total
[7] = biological target: B2 bradykinin receptor (rabbit airway smooth muscle membranes) (rabbit) (UniProt Q28642); test: radioligand binding, airway smooth muscle membranes of saline-treated control allergic rabbits
[8] = biological target: B2 bradykinin receptor (rabbit airway smooth muscle membranes) (rabbit) (UniProt Q28642); test: radioligand binding, airway smooth muscle membranes of allergic rabbits treated with adenosine A1 receptor antisense oligo, 0.2 mg total
[9] = biological target: B2 bradykinin receptor (rabbit airway smooth muscle membranes) (rabbit) (UniProt Q28642); test: radioligand binding, airway smooth muscle membranes of allergic rabbits treated with A1MM1 mismatch control oligo, 20 mg total
[10] = biological target: B2 bradykinin receptor (rabbit airway smooth muscle membranes) (rabbit) (UniProt Q28642); test: radioligand binding, airway smooth muscle membranes of allergic rabbits treated with B2MM mismatch oligo, 0.2 mg total
[11] = biological target: B2 bradykinin receptor (rabbit airway smooth muscle membranes) (rabbit) (UniProt Q28642); test: radioligand binding, airway smooth muscle membranes of allergic rabbits treated with B2A bradykinin receptor antisense oligo, 20 mg total
[12] = biological target: B2 bradykinin receptor (rabbit airway smooth muscle membranes) (rabbit) (UniProt Q28642); test: radioligand binding, airway smooth muscle membranes of allergic rabbits treated with adenosine A1 receptor antisense oligo, 20 mg total

UniProt Q28642, sequence (Q28642 whole entry): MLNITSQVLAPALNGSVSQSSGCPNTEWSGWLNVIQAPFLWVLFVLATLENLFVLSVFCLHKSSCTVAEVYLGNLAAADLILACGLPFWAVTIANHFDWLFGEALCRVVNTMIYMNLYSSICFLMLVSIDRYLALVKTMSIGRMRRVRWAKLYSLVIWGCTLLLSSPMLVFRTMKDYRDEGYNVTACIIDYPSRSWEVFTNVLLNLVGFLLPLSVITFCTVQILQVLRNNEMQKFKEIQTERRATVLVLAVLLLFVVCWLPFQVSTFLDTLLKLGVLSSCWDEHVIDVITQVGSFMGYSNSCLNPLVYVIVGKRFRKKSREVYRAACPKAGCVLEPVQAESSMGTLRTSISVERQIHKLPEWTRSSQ

Bmax [1]: 15.1 fmol
Kd [1]: 0.35 nM
Bmax [2]: 11.9 fmol
Kd [2]: 0.34 nM
Bmax [3]: 14 fmol
Kd [3]: 0.41 nM
Bmax [4]: 14.8 fmol
Kd [4]: 0.37 nM
Bmax [5]: 15.5 fmol
Kd [5]: 0.41 nM
Bmax [6]: 14.6 fmol
Kd [6]: 0.38 nM
Bmax [7]: 14.2 fmol
Kd [7]: 0.39 nM
Bmax [8]: 15 fmol
Kd [8]: 0.34 nM
Bmax [9]: 14 fmol
Kd [9]: 0.35 nM
Bmax [10]: 15.1 fmol
Kd [10]: 0.36 nM
Bmax [11]: 8.7 fmol
Kd [11]: 0.38 nM
Bmax [12]: 14.8 fmol
Kd [12]: 0.39 nM
Substance: [3H]NPC 17731 (peptide)
